Experimental data published in US20050026839A1 (GENERAL HOSPITAL, published 2005).
Square brackets hold non-standard residues; d marks the D form. Ends that are not written are not given here. hArg = N=C(N)NCCCC[C@H](N)C(=O)O; Nle = CCCC[C@H](N)C(=O)O; Aib = CC(C)(N)C(=O)O

B1: [Aib^1,3,M]PTH(1-21) (peptide)
peptide: [Aib]V[Aib]EIQL[Nle]HQ[hArg]AKWLASVRRY-NH2
modifications: N-terminus assumed
SMILES: CCCC[C@H](NC(=O)[C@H](CC(C)C)NC(=O)[C@H](CCC(N)=O)NC(=O)[C@@H](NC(=O)[C@H](CCC(=O)O)NC(=O)C(C)(C)NC(=O)[C@@H](NC(=O)C(C)(C)N)C(C)C)[C@@H](C)CC)C(=O)N[C@@H](Cc1c[nH]cn1)C(=O)N[C@@H](CCC(N)=O)C(=O)N[C@@H](CCCCNC(=N)N)C(=O)N[C@@H](C)C(=O)N[C@@H](CCCCN)C(=O)N[C@@H](Cc1c[nH]c2ccccc12)C(=O)N[C@@H](CC(C)C)C(=O)N[C@@H](C)C(=O)N[C@@H](CO)C(=O)N[C@H](C(=O)N[C@@H](CCCNC(=N)N)C(=O)N[C@@H](CCCNC(=N)N)C(=O)N[C@@H](Cc1ccc(O)cc1)C(N)=O)C(C)C
notes: unlabeled peptide; also called 674 [Aib^1,3, M]PTH (1-21); 674 [Aib^1,3M]PTH(1-21)
B2: [Aib^1,3,M]PTH(1-14) (peptide)
peptide: [Aib]V[Aib]EIQLMHQ[hArg]AKW-NH2
modifications: N-terminus assumed
SMILES: CC[C@H](C)[C@H](NC(=O)[C@H](CCC(=O)O)NC(=O)C(C)(C)NC(=O)[C@@H](NC(=O)C(C)(C)N)C(C)C)C(=O)N[C@@H](CCC(N)=O)C(=O)N[C@@H](CC(C)C)C(=O)N[C@@H](CCSC)C(=O)N[C@@H](Cc1c[nH]cn1)C(=O)N[C@@H](CCC(N)=O)C(=O)N[C@@H](CCCCNC(=N)N)C(=O)N[C@@H](C)C(=O)N[C@@H](CCCCN)C(=O)N[C@@H](Cc1c[nH]c2ccccc12)C(N)=O
notes: also called 671 [Aib^1,3, M]PTH (1-14); 671 [Aib^1,3M]PTH(1-14)

Columns and labels:
[1] = target: T1, wild-type human PTH/PTHrP receptor (hP1R-WT) (human, UniProt Q03431 27-593); experiment: competition binding, 125I-[M]PTH(1-21) tracer, HKRK-B28 cells, 4 h at 4 C
T1 construct: whole, on cells; HKRK-B28 cells express ~280,000 receptors per cell; also called PTH-1 receptor; PTH-1R
T1 sequence (looked up): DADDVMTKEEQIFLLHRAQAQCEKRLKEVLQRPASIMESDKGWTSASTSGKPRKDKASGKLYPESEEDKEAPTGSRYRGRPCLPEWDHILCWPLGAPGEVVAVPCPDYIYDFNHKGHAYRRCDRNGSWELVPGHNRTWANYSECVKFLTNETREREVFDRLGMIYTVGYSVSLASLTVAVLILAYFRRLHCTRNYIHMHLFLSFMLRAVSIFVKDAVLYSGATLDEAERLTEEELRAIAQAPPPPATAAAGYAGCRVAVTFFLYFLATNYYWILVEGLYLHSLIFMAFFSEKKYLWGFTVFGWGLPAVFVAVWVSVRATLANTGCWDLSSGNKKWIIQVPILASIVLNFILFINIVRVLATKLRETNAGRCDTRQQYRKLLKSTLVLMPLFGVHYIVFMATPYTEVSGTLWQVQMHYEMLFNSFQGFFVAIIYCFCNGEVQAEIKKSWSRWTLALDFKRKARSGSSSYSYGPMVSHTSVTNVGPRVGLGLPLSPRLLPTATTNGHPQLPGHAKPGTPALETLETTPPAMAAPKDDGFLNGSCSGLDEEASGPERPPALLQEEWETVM
Procedure, shortened: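 Cells are incubated with about 26 fmol ¹²⁵I-[M]PTH(1-21) tracer and unlabeled competitor in 300 μL for 4 h at 4 °C, then washed, lysed and counted. Nonspecific binding is defined with 1 μM of the same unlabeled peptide. IC50 values come from nonlinear regression, and the peptides are rat-PTH-based and C-terminally amidated.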

[2] = target: T2, truncated human P1R deleted for residues (24-181) (hP1R-delNt) (human, UniProt Q03431 182-593); experiment: competition binding, COS-7 cells expressing P1R-delNt
T2 construct: whole, on cells; also called delNT receptor
T2 sequence (looked up): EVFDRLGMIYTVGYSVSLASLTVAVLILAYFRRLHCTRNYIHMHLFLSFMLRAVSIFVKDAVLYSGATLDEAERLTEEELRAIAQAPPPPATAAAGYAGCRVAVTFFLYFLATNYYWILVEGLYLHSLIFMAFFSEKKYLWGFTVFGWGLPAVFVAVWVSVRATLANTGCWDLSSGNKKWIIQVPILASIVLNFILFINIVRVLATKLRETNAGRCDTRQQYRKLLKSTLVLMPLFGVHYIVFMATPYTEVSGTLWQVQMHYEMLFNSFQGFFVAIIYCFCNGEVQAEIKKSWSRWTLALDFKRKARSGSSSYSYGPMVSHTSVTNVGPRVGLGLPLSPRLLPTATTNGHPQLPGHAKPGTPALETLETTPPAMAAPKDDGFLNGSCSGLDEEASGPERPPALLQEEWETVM
Description: These cells, as well as COS-7 cells and SaOS-2-B10 cells, were cultured at […] in T-75 flasks ([…]) in Dulbecco's modified Eagle's medium (DMEM) supplemented with fetal bovine serum (10%), penicillin G (20 units/ml), streptomycin sulfate (20 μg/ml) and amphotericin B (0.05 μg/ml) in a humidified atmosphere containing 5% CO₂. Stock solutions of EGTA/trypsin and antibiotics were from GIBCO; fetal bovine serum was from Hyclone Laboratories (Logan, Utah). […] All cells, in 24-well plates, were treated with fresh media and shifted to 33° C. for 12 to 24 h prior to assay.
Competition Binding. Binding reactions were performed with HKRK-B28 cells or in COS-7 cells in 24-well plates. […] The cells were subsequently lysed with 0.5 mL […] and counted for radioactivity. For each tracer and in each experiment, the non-specific binding was determined as the radioactivity that bound in the presence of the same unlabeled peptide at a concentration of 1 μM, and was ˜1% of total radioactivity added for each tracer. The maximum specific binding (B₀) was the total radioactivity bound in the absence of competing ligand, corrected for nonspecific binding, and for each tracer, ranged from 8% to 20% of the total radioactivity added. […]

Row | Binder | IC50 [1] | fold difference in affinity against [Aib^1,3,M]PTH(1-14) [2] | fold stronger binding affinity than [M]PTH(1-14) [2]
1 | B1 | 31 nM | 50 fold | 
2 | B2 | 130 nM |  | ~10 fold
